Assay results as given in publication PMC8906542.

Legend:
Assay in all cases: fluorescence polarization
ErmE R165A = molecular target: T1, ErmE R165A (Saccharopolyspora erythraea, UniProt P07287 1-381, R165A)
T1 sequence: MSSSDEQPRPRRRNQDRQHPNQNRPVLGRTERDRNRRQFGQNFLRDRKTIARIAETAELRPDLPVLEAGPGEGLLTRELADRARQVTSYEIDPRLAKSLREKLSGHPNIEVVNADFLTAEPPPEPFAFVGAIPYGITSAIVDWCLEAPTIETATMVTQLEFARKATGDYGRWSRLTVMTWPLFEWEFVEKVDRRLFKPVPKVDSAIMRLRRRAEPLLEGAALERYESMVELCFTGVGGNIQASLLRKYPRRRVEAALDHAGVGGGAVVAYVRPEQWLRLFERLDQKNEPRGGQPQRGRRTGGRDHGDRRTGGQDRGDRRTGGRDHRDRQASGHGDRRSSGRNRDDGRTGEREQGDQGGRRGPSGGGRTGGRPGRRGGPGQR

ErmE R163E = molecular target: T2, ErmE R163E (Saccharopolyspora erythraea, UniProt P07287 1-381, R163E)
T2 sequence: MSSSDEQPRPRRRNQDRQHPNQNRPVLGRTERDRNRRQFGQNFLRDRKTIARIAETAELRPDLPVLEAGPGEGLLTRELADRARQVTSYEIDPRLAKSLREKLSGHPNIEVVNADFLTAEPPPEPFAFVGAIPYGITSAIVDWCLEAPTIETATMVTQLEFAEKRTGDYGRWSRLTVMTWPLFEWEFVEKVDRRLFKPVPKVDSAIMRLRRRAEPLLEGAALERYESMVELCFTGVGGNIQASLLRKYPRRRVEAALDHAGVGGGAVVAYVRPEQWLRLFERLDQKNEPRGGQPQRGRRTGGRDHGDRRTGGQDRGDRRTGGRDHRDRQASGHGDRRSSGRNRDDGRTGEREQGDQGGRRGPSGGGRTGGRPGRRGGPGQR

ErmE K164S = molecular target: T3, ErmE K164S (Saccharopolyspora erythraea, UniProt P07287 1-381, K164S)
T3 sequence: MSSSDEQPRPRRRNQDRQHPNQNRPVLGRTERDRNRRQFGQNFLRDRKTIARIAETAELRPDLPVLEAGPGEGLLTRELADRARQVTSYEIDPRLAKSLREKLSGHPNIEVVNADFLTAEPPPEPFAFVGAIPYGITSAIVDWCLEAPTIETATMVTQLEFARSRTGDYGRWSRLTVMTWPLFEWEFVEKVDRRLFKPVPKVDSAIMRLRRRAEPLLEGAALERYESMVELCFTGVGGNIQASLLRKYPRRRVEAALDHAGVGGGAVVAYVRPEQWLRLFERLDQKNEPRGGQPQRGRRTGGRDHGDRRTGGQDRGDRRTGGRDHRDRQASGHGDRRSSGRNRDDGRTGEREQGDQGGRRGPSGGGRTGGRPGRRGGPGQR

ErmE K164M = molecular target: T4, ErmE K164M (Saccharopolyspora erythraea, UniProt P07287 1-381, K164M)
T4 sequence: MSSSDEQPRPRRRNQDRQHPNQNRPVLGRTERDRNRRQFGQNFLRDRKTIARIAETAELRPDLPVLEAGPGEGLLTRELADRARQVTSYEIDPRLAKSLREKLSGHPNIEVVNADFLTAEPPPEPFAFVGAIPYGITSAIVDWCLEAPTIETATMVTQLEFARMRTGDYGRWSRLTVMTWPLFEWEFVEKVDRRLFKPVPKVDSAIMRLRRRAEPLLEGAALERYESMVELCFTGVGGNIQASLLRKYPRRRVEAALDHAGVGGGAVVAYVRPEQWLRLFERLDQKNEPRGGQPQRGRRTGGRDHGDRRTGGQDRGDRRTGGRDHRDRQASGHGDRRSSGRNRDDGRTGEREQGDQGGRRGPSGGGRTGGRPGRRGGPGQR

ErmE E160A = molecular target: T5, ErmE E160A (Saccharopolyspora erythraea, UniProt P07287 1-381, E160A)
T5 sequence: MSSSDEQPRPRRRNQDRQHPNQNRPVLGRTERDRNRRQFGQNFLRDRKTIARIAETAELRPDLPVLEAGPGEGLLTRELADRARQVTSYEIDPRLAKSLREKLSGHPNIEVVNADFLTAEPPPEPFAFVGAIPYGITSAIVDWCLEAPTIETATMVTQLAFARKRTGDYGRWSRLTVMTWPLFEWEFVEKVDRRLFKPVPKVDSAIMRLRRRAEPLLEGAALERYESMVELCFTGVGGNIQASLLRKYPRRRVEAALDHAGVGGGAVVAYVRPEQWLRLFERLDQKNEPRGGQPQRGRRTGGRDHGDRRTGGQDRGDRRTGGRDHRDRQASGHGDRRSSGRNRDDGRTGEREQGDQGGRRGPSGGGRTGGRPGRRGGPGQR

ErmE E160W = molecular target: T6, ErmE E160W (Saccharopolyspora erythraea, UniProt P07287 1-381, E160W)
T6 sequence: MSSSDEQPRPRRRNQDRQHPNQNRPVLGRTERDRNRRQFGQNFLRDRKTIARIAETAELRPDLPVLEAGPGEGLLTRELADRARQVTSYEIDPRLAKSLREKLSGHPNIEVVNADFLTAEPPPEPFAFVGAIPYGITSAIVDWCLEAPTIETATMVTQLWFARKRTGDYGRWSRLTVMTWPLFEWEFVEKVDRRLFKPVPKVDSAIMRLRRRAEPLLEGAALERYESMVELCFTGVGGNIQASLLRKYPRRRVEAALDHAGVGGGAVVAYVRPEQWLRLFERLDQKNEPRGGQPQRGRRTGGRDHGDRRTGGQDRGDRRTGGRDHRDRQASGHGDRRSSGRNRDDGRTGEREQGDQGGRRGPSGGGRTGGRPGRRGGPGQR

Binder: GGCCUGCGGCAAGACGGAAAGACCAUGGUCCCUAUCUGCCGCAGGAUC (structured_RNA) [V48 Erm substrate (23S rRNA helix 73 mimic, 48 nt)]
- Kd (ErmE R165A): 0.49 ± 0.05 µM
- Kd (ErmE R163E): 3.7 µM
- binding result (ErmE K164S): binds
- binding result (ErmE K164M): binds
- binding result (ErmE E160A): binds
- binding signal (ErmE E160W): ~4 fold Kd increase vs wt
